First the molecules themselves.
B3: Pseudomonas aeruginosa RuvB (enzyme, UniProt Q51426 1-352, looked up)
chain: MIEPDRLISAVSGRERDEQLDRAIRPLKLADYIGQPSVREQMELFIHAARGRQEALDHTLIFGPPGLGKTTLANIIAQEMGVSIKSTSGPVLERPGDLAALLTNLEAGDVLFVDEIHRLSPIVEEVLYPAMEDFQLDIMIGEGPAARSIKLDLPPFTLVGATTRAGMLTNPLRDRFGIVQRLEFYNVEDLATIVSRSAGILGLEIEPQGAAEIAKRARGTPRIANRLLRRVRDFAEVRGQGDITRVIADKALNLLDVDERGFDHLDRRLLLTMIDKFDGGPVGIDNLAAALSEERHTIEDVLEPYLIQQGYIMRTPRGRVVTRHAYLHFGLNIPKRLGPGVTTDLFTSEDGN
notes: RuvB, AAA+ ATPase motor protein of Pseudomonas aeruginosa; cDNA synthesised (GenBank ID 882028); domains N, M and C; In the cryo-EM complex eight RuvB subunits form two open rings of four; only one ring is modelled; GST removed with PreScission protease; also called PaRuvB; source: E. coli BL21 (DE3), purified (GST Sepharose, Source 15Q, Superdex 200); not shown: GST, N-terminal, cleaved

The target of data set [1] is B3. Briefly: cryo-EM structure; HJ DNA (HJ2) pre-incubated with RuvA at 4°C for 15 min, then with RuvB for 15 min, RuvA:RuvB:HJ = 8:16:1.2; 50 mM NaCl, 20 mM HEPES pH 7.4, 1 mM ATPγS, 10 mM MgCl2, 1 mM DTT; complex purified on Superose 6. The conditions noted are these: both partners purified.
Data set [2] deals with the molecule itself. Described as above.
In a further data set the target is PaRuvB (Pseudomonas aeruginosa, UniProt Q51426 1-352). The experiment in a line: cryo-EM; RuvB ring on one HJ arm duplex in the RuvAB-HJ complex; RuvB1 and RuvB2 contact DNA via C-terminal beta-hairpins, RuvB3 and RuvB4 DNA-free; PDB assigned from residue and nucleotide counts; binding buffer for cryo-EM not given in material; proteins in 20 mM HEPES pH 7.4, 200 mM NaCl, 15 mM reduced glutathione, 1 mM DTT; DNA annealed in 100 mM HEPES pH 7.4, 50 mM NaCl. Particulars: protein: recombinant; tags: GST tag removed (PreScission); chain copies: 8; four-way Holliday junction of 4 strands; A/B and C/D annealed first, then mixed.

For another data set, the target named is T1, PaRuvA (Pseudomonas aeruginosa, UniProt Q51425 1-201).
T1 sequence: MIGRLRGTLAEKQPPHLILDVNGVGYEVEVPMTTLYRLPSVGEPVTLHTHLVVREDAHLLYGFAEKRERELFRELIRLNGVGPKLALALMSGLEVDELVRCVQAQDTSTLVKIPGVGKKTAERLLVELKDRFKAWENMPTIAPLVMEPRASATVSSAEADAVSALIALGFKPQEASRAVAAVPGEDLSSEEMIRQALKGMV
Briefly: cryo-EM; RuvA-HJ core region of the RuvAB-HJ complex, 3.0 A; PDB assigned from residue and nucleotide counts; binding buffer for cryo-EM not given in material; proteins in 20 mM HEPES pH 7.4, 200 mM NaCl, 15 mM reduced glutathione, 1 mM DTT; DNA annealed in 100 mM HEPES pH 7.4, 50 mM NaCl. Particulars: protein: recombinant; tags: GST tag removed (PreScission); chain copies: 8; four-way Holliday junction of 4 strands; A/B and C/D annealed first, then mixed.

For a further data set, the target named is PaRuvA;PaRuvB (Pseudomonas aeruginosa;Pseudomonas …, UniProt Q51425;Q51426 1-201;1-352, |). Briefly: cryo-EM; RuvAB-HJ intermediate complex; PDB assigned from residue and nucleotide counts; binding buffer for cryo-EM not given in material; proteins in 20 mM HEPES pH 7.4, 200 mM NaCl, 15 mM reduced glutathione, 1 mM DTT; DNA annealed in 100 mM HEPES pH 7.4, 50 mM NaCl. Particulars: protein: recombinant;recombinant; tags: GST tag removed (PreScission);GST tag removed (PreScission); chain copies: 8;8; four-way Holliday junction of 4 strands; A/B and C/D annealed first, then mixed.

B1: Pseudomonas aeruginosa RuvA (natural protein, UniProt Q51425 1-201, looked up)
chain: MIGRLRGTLAEKQPPHLILDVNGVGYEVEVPMTTLYRLPSVGEPVTLHTHLVVREDAHLLYGFAEKRERELFRELIRLNGVGPKLALALMSGLEVDELVRCVQAQDTSTLVKIPGVGKKTAERLLVELKDRFKAWENMPTIAPLVMEPRASATVSSAEADAVSALIALGFKPQEASRAVAAVPGEDLSSEEMIRQALKGMV
notes: cDNA synthesised (GenBank ID 879609); domains D1, D2 and D3; In the cryo-EM complex eight RuvA subunits (two tetramers) sandwich one Holliday junction DNA; GST removed with PreScission protease; also called PaRuvA; source: E. coli Rosetta (DE3), purified (GST Sepharose, Source 15Q, Superdex 200); not shown: GST, N-terminal, cleaved
With B1, in data set [1], the binding result was “binds”. For the same molecule, the “stoichiometry N” value in data set [2] is 8.

B2: HJ2 (HJ2-A/B/C/D) (structured_DNA)
DNA 1: CACTGTGATGCACGATGATAGAACACAGTACTCAGTGCTGCAGTGCTCAGGTGTG
DNA 2: ATACAGATGTAGAGCCAGCACTGAGTACTGTGTTCTATCATCGTGCATCACAGTG
DNA 3: CACTGTGATGGCATGTATCCGAACACAGTACTCAGTGCTGGCTCTACATCTGTAT
DNA 4: CACACCTGAGCACTGCAGCACTGAGTACTGTGTTCGGATACATGCCATCACAGTG
With B2, the binding result in the data set with PaRuvB, with PaRuvA and in the data set with PaRuvA;PaRuvB was “binds” throughout.
Take B3: in data set [2], the “stoichiometry N” value was found to be 4.
